Reference: article PMC9482650, “Quantitative fragmentomics allow affinity mapping of interactomes” (Nature Communications, 2022)

T1: NHERF3_1, Q5T2W1
T1 sequence (Q5T2W1 4-100, limits assumed, looked up): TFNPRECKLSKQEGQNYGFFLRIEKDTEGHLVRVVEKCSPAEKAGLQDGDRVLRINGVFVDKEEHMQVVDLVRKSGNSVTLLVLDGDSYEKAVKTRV

T2: LRRC7, Q96NW7
T2 sequence (Q96NW7 1440-1537, limits assumed, looked up): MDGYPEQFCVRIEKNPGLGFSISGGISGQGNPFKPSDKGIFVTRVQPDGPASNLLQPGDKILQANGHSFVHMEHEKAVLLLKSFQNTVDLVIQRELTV

T3: CARD11, Q9BXL7
T3 sequence (Q9BXL7 662-765, limits assumed, looked up): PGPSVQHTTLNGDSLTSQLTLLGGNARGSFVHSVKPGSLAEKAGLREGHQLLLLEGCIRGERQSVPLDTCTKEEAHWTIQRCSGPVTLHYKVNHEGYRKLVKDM

T4: PCLO, Q9Y6V0
T4 sequence (Q9Y6V0 4491-4600, limits assumed, looked up): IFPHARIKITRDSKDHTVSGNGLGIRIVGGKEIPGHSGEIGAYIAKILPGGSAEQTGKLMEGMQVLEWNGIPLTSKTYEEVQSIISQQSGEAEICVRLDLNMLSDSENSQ

T5: LIN7B, Q9HAP6
T5 sequence (Q9HAP6 88-185, limits assumed, looked up): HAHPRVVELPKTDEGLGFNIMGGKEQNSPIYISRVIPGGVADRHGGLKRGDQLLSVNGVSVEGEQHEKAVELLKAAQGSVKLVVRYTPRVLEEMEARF

T6: LNX2_2, Q8N448
T6 sequence (Q8N448 334-432, limits assumed, looked up): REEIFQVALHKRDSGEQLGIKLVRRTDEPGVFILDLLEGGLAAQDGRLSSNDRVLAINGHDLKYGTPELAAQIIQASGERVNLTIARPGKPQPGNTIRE

T7: NHERF3_3, Q5T2W1
T7 sequence (Q5T2W1 238-333, limits assumed, looked up): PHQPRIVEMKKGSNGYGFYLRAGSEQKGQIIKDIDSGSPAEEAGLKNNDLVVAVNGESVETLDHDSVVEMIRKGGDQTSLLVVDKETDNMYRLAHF

T8: HTRA3, P83110
T8 sequence (P83110 354-453, limits assumed, looked up): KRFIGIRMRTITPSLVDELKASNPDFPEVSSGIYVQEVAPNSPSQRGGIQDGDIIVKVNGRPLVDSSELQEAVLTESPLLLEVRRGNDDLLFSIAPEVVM

T9: SNTG1, Q9NSN8
T9 sequence (Q9NSN8 52-150, limits assumed, looked up): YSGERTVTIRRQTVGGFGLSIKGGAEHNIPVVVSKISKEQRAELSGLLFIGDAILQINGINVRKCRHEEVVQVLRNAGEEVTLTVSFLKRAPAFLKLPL


The binders below were run against SCRIB_3, Q14160 (assay: holdup assay). Settings: plain residues with an end cap or a label only (N-terminal biotin on a linker: ado-ado).
SCRIB_3, Q14160, sequence (Q14160 999-1103): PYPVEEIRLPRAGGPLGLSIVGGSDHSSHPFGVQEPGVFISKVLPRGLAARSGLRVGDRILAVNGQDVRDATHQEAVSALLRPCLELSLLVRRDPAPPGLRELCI
Parameters: key: below the threshold = too weak to quantify, mostly under pKd 3.1 to 4

Row | pKd | Binder
1 | 4.62 | TNSRHGETTV [FZD2, Q14332]
2 | 4.1 | DDASLPVSDV [PLEKHA1, Q9HB21]

The binders below were run against T1, NHERF3_1, Q5T2W1 (assay: holdup assay). Settings: plain residues with an end cap or a label only (N-terminal biotin on a linker: ado-ado).
Parameters: key: below the threshold = too weak to quantify, mostly under pKd 3.1 to 4

Row | pKd | Binder
3 | below the threshold | TNSRHGETTV [FZD2, Q14332]
4 | below the threshold | DDASLPVSDV [PLEKHA1, Q9HB21]

Each binder was assayed against LAP2, Q96RT1 (assay: holdup assay). Settings: plain residues with an end cap or a label only (N-terminal biotin on a linker: ado-ado).
LAP2, Q96RT1, sequence (Q96RT1 other isoform, or with tags, fused parts or gaps): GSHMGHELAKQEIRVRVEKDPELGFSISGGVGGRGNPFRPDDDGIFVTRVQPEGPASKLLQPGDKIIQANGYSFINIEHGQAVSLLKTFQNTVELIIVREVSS
Parameters: key: below the threshold = too weak to quantify, mostly under pKd 3.1 to 4

Row | pKd | Binder
5 | 4.02 | TNSRHGETTV [FZD2, Q14332]
6 | 3.73 | DDASLPVSDV [PLEKHA1, Q9HB21]

The binders below were run against SCRIB_2, Q14160 (assay: holdup assay). Settings: plain residues with an end cap or a label only (N-terminal biotin on a linker: ado-ado).
SCRIB_2, Q14160, sequence (Q14160 857-960): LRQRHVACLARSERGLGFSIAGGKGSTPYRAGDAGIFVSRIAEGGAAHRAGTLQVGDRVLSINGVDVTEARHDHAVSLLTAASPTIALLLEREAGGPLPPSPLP
Parameters: key: below the threshold = too weak to quantify, mostly under pKd 3.1 to 4

Row | pKd | Binder
7 | 4.42 | TNSRHGETTV [FZD2, Q14332]
8 | below the threshold | DDASLPVSDV [PLEKHA1, Q9HB21]

The binders below were run against DLG5_1, Q8TDM6 (assay: holdup assay). Settings: plain residues with an end cap or a label only (N-terminal biotin on a linker: ado-ado).
DLG5_1, Q8TDM6, sequence (Q8TDM6 617-713): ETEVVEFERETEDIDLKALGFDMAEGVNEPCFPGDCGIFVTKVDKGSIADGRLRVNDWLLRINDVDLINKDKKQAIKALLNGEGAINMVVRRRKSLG
Parameters: key: below the threshold = too weak to quantify, mostly under pKd 3.1 to 4

Row | pKd | Binder
9 | 3.48 | TNSRHGETTV [FZD2, Q14332]
10 | below the threshold | DDASLPVSDV [PLEKHA1, Q9HB21]

Each binder was assayed against Inadl_5, Q8NI35 (assay: holdup assay). Settings: plain residues with an end cap or a label only (N-terminal biotin on a linker: ado-ado).
Inadl_5, Q8NI35, sequence (Q8NI35 673-780): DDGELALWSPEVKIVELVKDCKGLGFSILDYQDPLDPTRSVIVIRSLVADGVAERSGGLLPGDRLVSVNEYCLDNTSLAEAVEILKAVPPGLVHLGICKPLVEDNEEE
Parameters: key: below the threshold = too weak to quantify, mostly under pKd 3.1 to 4

Row | pKd | Binder
11 | below the threshold | TNSRHGETTV [FZD2, Q14332]
12 | below the threshold | DDASLPVSDV [PLEKHA1, Q9HB21]

The binders below were run against GRIP2_5, Q9C0E4 (assay: holdup assay). Settings: plain residues with an end cap or a label only (N-terminal biotin on a linker: ado-ado).
GRIP2_5, Q9C0E4, sequence (Q9C0E4 544-642): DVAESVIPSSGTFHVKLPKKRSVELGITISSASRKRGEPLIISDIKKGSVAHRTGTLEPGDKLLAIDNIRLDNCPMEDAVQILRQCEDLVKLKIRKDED
Parameters: key: below the threshold = too weak to quantify, mostly under pKd 3.1 to 4

Row | pKd | Binder
13 | below the threshold | TNSRHGETTV [FZD2, Q14332]
14 | below the threshold | DDASLPVSDV [PLEKHA1, Q9HB21]

These binders were tested against T2, LRRC7, Q96NW7 (assay: holdup assay). Settings: plain residues with an end cap or a label only (N-terminal biotin on a linker: ado-ado).
Parameters: key: below the threshold = too weak to quantify, mostly under pKd 3.1 to 4

Row | pKd | Binder
15 | below the threshold | TNSRHGETTV [FZD2, Q14332]
16 | below the threshold | DDASLPVSDV [PLEKHA1, Q9HB21]

What follows are binders tested against NHERF4_1, Q86UT5-2 (assay: holdup assay). Settings: plain residues with an end cap or a label only (N-terminal biotin on a linker: ado-ado).
NHERF4_1, Q86UT5-2, sequence (Q86UT5 other isoform, or with tags, fused parts or gaps): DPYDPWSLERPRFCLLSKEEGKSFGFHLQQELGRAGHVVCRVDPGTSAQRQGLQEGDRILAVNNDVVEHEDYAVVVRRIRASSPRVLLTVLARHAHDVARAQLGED
Parameters: key: below the threshold = too weak to quantify, mostly under pKd 3.1 to 4

Row | pKd | Binder
17 | below the threshold | TNSRHGETTV [FZD2, Q14332]
18 | below the threshold | DDASLPVSDV [PLEKHA1, Q9HB21]

Each binder was assayed against T3, CARD11, Q9BXL7 (assay: holdup assay). Settings: plain residues with an end cap or a label only (N-terminal biotin on a linker: ado-ado).
Parameters: key: below the threshold = too weak to quantify, mostly under pKd 3.1 to 4

Row | pKd | Binder
19 | below the threshold | TNSRHGETTV [FZD2, Q14332]
20 | below the threshold | DDASLPVSDV [PLEKHA1, Q9HB21]

The binders below were run against T4, PCLO, Q9Y6V0 (assay: holdup assay). Settings: plain residues with an end cap or a label only (N-terminal biotin on a linker: ado-ado).
Parameters: key: below the threshold = too weak to quantify, mostly under pKd 3.1 to 4

Row | pKd | Binder
21 | below the threshold | TNSRHGETTV [FZD2, Q14332]
22 | below the threshold | DDASLPVSDV [PLEKHA1, Q9HB21]

The binders below were run against T5, LIN7B, Q9HAP6 (assay: holdup assay). Settings: plain residues with an end cap or a label only (N-terminal biotin on a linker: ado-ado).
Parameters: key: below the threshold = too weak to quantify, mostly under pKd 3.1 to 4

Row | pKd | Binder
23 | 3.82 | TNSRHGETTV [FZD2, Q14332]
24 | below the threshold | DDASLPVSDV [PLEKHA1, Q9HB21]

These binders were tested against LDB3, O75112 (assay: holdup assay). Settings: plain residues with an end cap or a label only (N-terminal biotin on a linker: ado-ado).
LDB3, O75112, sequence (O75112 1-94): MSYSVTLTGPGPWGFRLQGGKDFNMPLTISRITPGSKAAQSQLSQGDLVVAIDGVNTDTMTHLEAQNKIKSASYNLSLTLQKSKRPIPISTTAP
Parameters: key: below the threshold = too weak to quantify, mostly under pKd 3.1 to 4

Row | pKd | Binder
25 | below the threshold | TNSRHGETTV [FZD2, Q14332]
26 | below the threshold | DDASLPVSDV [PLEKHA1, Q9HB21]

These binders were tested against T6, LNX2_2, Q8N448 (assay: holdup assay). Settings: plain residues with an end cap or a label only (N-terminal biotin on a linker: ado-ado).
Parameters: key: below the threshold = too weak to quantify, mostly under pKd 3.1 to 4

Row | pKd | Binder
27 | 4.83 | TNSRHGETTV [FZD2, Q14332]
28 | below the threshold | DDASLPVSDV [PLEKHA1, Q9HB21]

What follows are binders tested against DLG4_3, P78352 (assay: holdup assay). Settings: plain residues with an end cap or a label only (N-terminal biotin on a linker: ado-ado).
DLG4_3, P78352, sequence (P78352 306-403): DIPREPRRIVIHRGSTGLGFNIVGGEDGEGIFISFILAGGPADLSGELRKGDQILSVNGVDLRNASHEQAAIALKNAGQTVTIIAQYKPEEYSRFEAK
Parameters: key: below the threshold = too weak to quantify, mostly under pKd 3.1 to 4

Row | pKd | Binder
29 | 4.24 | TNSRHGETTV [FZD2, Q14332]
30 | below the threshold | DDASLPVSDV [PLEKHA1, Q9HB21]

What follows are binders tested against T7, NHERF3_3, Q5T2W1 (assay: holdup assay). Settings: plain residues with an end cap or a label only (N-terminal biotin on a linker: ado-ado).
Parameters: key: below the threshold = too weak to quantify, mostly under pKd 3.1 to 4

Row | pKd | Binder
31 | below the threshold | TNSRHGETTV [FZD2, Q14332]
32 | below the threshold | DDASLPVSDV [PLEKHA1, Q9HB21]

Each binder was assayed against GOPC, Q9HD26 (assay: holdup assay). Settings: plain residues with an end cap or a label only (N-terminal biotin on a linker: ado-ado).
Parameters: key: below the threshold = too weak to quantify, mostly under pKd 3.1 to 4

Row | pKd | Binder
33 | 3.88 | TNSRHGETTV [FZD2, Q14332]
34 | 4.25 | DDASLPVSDV [PLEKHA1, Q9HB21]

These binders were tested against IL16_3, Q14005 (assay: holdup assay). Settings: plain residues with an end cap or a label only (N-terminal biotin on a linker: ado-ado).
IL16_3, Q14005, sequence (Q14005 1107-1207): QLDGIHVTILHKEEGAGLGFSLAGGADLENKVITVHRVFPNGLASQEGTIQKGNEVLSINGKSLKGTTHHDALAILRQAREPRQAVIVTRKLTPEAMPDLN
Parameters: key: below the threshold = too weak to quantify, mostly under pKd 3.1 to 4

Row | pKd | Binder
35 | below the threshold | TNSRHGETTV [FZD2, Q14332]
36 | below the threshold | DDASLPVSDV [PLEKHA1, Q9HB21]

The binders below were run against T8, HTRA3, P83110 (assay: holdup assay). Settings: plain residues with an end cap or a label only (N-terminal biotin on a linker: ado-ado).
Parameters: key: below the threshold = too weak to quantify, mostly under pKd 3.1 to 4

Row | pKd | Binder
37 | below the threshold | TNSRHGETTV [FZD2, Q14332]
38 | below the threshold | DDASLPVSDV [PLEKHA1, Q9HB21]

What follows are binders tested against MAGI2_4, Q86UL8 (assay: holdup assay). Settings: plain residues with an end cap or a label only (N-terminal biotin on a linker: ado-ado).
MAGI2_4, Q86UL8, sequence (Q86UL8 772-865): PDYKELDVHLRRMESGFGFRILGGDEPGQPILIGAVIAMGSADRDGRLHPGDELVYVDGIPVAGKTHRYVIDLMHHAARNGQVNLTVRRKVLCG
Parameters: key: below the threshold = too weak to quantify, mostly under pKd 3.1 to 4

Row | pKd | Binder
39 | 4.1 | TNSRHGETTV [FZD2, Q14332]
40 | below the threshold | DDASLPVSDV [PLEKHA1, Q9HB21]

These binders were tested against SNX27, Q96L92 (assay: holdup assay). Settings: plain residues with an end cap or a label only (N-terminal biotin on a linker: ado-ado).
Parameters: key: below the threshold = too weak to quantify, mostly under pKd 3.1 to 4

Row | pKd | Binder
41 | 5.64 | TNSRHGETTV [FZD2, Q14332]
42 | below the threshold | DDASLPVSDV [PLEKHA1, Q9HB21]

Each binder was assayed against T9, SNTG1, Q9NSN8 (assay: holdup assay). Settings: plain residues with an end cap or a label only (N-terminal biotin on a linker: ado-ado).
Parameters: key: below the threshold = too weak to quantify, mostly under pKd 3.1 to 4

Row | pKd | Binder
43 | 4.27 | TNSRHGETTV [FZD2, Q14332]
44 | 5.09 | DDASLPVSDV [PLEKHA1, Q9HB21]

Each binder was assayed against GRID2IP_2, A4D2P6 (assay: holdup assay). Settings: plain residues with an end cap or a label only (N-terminal biotin on a linker: ado-ado).
GRID2IP_2, A4D2P6, sequence (A4D2P6 272-370): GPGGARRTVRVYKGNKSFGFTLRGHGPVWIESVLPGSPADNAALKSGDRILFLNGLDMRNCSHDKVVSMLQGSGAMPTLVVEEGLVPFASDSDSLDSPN
Parameters: key: below the threshold = too weak to quantify, mostly under pKd 3.1 to 4

Row | pKd | Binder
45 | 3.53 | TNSRHGETTV [FZD2, Q14332]
46 | 4.35 | DDASLPVSDV [PLEKHA1, Q9HB21]

What follows are binders tested against PICK1, Q9NRD5 (assay: holdup assay). Settings: plain residues with an end cap or a label only (N-terminal biotin on a linker: ado-ado).
PICK1, Q9NRD5, sequence (Q9NRD5 17-115): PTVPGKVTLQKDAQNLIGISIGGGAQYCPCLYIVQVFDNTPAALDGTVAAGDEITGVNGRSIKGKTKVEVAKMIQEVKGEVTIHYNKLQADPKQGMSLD
Parameters: key: below the threshold = too weak to quantify, mostly under pKd 3.1 to 4

Row | pKd | Binder
47 | below the threshold | TNSRHGETTV [FZD2, Q14332]
48 | below the threshold | DDASLPVSDV [PLEKHA1, Q9HB21]

What follows are binders tested against TJP2_1, Q9UDY2 (assay: holdup assay). Settings: plain residues with an end cap or a label only (N-terminal biotin on a linker: ado-ado).
TJP2_1, Q9UDY2, sequence (Q9UDY2 24-128): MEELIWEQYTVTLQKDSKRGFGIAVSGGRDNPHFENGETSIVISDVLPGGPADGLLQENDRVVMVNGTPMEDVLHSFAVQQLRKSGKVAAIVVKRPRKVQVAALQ
Parameters: key: below the threshold = too weak to quantify, mostly under pKd 3.1 to 4

Row | pKd | Binder
49 | below the threshold | TNSRHGETTV [FZD2, Q14332]
50 | below the threshold | DDASLPVSDV [PLEKHA1, Q9HB21]

The binders below were run against Inadl_10, Q8NI35 (assay: holdup assay). Settings: plain residues with an end cap or a label only (N-terminal biotin on a linker: ado-ado).
Inadl_10, Q8NI35, sequence (Q8NI35 1673-1763): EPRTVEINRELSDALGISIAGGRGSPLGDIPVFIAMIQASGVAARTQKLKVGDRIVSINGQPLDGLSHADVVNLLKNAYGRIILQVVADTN
Parameters: key: below the threshold = too weak to quantify, mostly under pKd 3.1 to 4

Row | pKd | Binder
51 | below the threshold | TNSRHGETTV [FZD2, Q14332]
52 | below the threshold | DDASLPVSDV [PLEKHA1, Q9HB21]

Each binder was assayed against GRIP2_7, Q9C0E4 (assay: holdup assay). Settings: plain residues with an end cap or a label only (N-terminal biotin on a linker: ado-ado).
GRIP2_7, Q9C0E4, sequence (Q9C0E4 934-1023): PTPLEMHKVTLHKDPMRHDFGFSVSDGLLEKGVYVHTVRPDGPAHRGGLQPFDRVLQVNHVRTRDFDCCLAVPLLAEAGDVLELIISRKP
Parameters: key: below the threshold = too weak to quantify, mostly under pKd 3.1 to 4

Row | pKd | Binder
53 | below the threshold | TNSRHGETTV [FZD2, Q14332]
54 | below the threshold | DDASLPVSDV [PLEKHA1, Q9HB21]

The binders below were run against NHERF4_2, Q86UT5 (assay: holdup assay). Settings: plain residues with an end cap or a label only (N-terminal biotin on a linker: ado-ado).
NHERF4_2, Q86UT5, sequence (Q86UT5 220-308): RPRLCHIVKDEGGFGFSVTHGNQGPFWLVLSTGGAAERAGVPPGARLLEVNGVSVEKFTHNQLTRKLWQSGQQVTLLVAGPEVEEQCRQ
Parameters: key: below the threshold = too weak to quantify, mostly under pKd 3.1 to 4

Row | pKd | Binder
55 | below the threshold | TNSRHGETTV [FZD2, Q14332]
56 | below the threshold | DDASLPVSDV [PLEKHA1, Q9HB21]
